Patent US20250002921A1, “SPHERICAL NUCLEIC ACIDS FOR cGAS-STING AND STAT3 PATHWAY MODULATION FOR THE IMMUNOTHERAPEUTIC TREATMENT OF CANCER” (NORTHWESTER UNIVERSITY, priority 2021, published 2025)

Test system: IRF
Test: IRF reporter assay in isogenic cGAS-, STING- and IRF-deficient macrophages
Assay type: cell-based
Settings: IRF-deficient macrophages, FIG. 2D
Excerpt: (A) ICP-MS to quantify cellular level of gold in cells treated with ISD45-SNAs. (B-D) Luciferase reporter assay to quantify IRF induction in RAW-Lucia™ macrophages (B), THP cells (C), and in WT, cGAS-, STING- and IRF-deficient RAW-Lucia™ macrophages. TFX, transfection agent. Median+/−standard deviation is shown. *p<0.05. (E) Multiplex ELISA-based and (F) antibody array-based cytokine profiling in RAW-Lucia™ macrophages.
To exploit the SNA architecture for cGAS activation, we synthesized ISD45-SNAs by conjugating 13 nm gold nanoparticles with 45 base pair (bp) dsISD oligonucleotides (ISD^45-SNAs; FIG. 1A), as 45 bp ISD oligonucleotides represent the most used and widely characterized cGAS activator^7. The terms “dsISD^45” and “ISD^45” are interchangeable as used herein. Citrate-stabilized gold nanoparticles were prepared using the Frens method^4,8,9. […] In addition, by generating melting curves, using an OliGreen fluorescence assay, and determining the zeta potential, oligonucleotide incorporation was quantified^4,8,9. […] Upon cGAS enzyme deactivation, the mixture was added to cGAS-deficient RAW-Lucia™ macrophages, carrying stable integration of an IRF-inducible Lucia luciferase reporter to quantify IRF induction luminometrically. […]

B1: ISD-45: free 45 bp interferon-stimulatory dsDNA oligonucleotide, the most used and widely characterized cGAS activator (nucleic acid)
sense: TACAGATCTACTAGTGATCTATGACTGATCTGTACATGATCTACA
antisense: ACATCTAGTACATGTCTAGTCAGTATCTAGTGATCATCAGACA
modifications: DNA, backbone and methylation of C not given here
Question: For B1, which “IRF induction in the absence of STING, cGAS or IRF” value is on record?
Answer: blunted
